# Test system: Escherichia coli TOP10
# Assay: shrunken log2 fold change of peptide-encoding DNA abundance (4.5 h post-induction vs induction); higher = less antimicrobial activity (less host growth inhibition)
# Details: time post-induction: 4.5 h; library: site-saturation at positions 5, 18, 19, 20
# 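Further: peptides expressed intracellularly from a pBAD plasmid library in pooled LB shake-flask culture, induced with 0.3% L-arabinose, DNA abundance read by NGS, three biological replicates, DESeq2 with apeglm shrinkage.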
row,Sequence,shrunken log2 fold change
1,RRIRARPPRLPRPRPRPSKLPRP,-0.118
2,RRIRLRPPRLPRPRPRPTMNPRP,-0.362
3,RRIRWRPPRLPRPRPRPPDIPRP,0.238
4,RRIRHRPPRLPRPRPRPYQYPRP,-0.00963
5,RRIRSRPPRLPRPRPRPFAPPRP,0.314
6,RRIRSRPPRLPRPRPRPSWKPRP,-0.0985
7,RRIRERPPRLPRPRPRPIKYPRP,-0.351
8,RRIRHRPPRLPRPRPRPMHKPRP,0.227
9,RRIRYRPPRLPRPRPRPHCWPRP,-0.702
10,RRIRIRPPRLPRPRPRPDLCPRP,-0.101
11,RRIRWRPPRLPRPRPRPQHGPRP,-0.164
12,RRIRNRPPRLPRPRPRPCARPRP,-0.213
13,RRIRNRPPRLPRPRPRPMFLPRP,-0.241
14,RRIRMRPPRLPRPRPRPFIPPRP,-0.26
15,RRIRLRPPRLPRPRPRPFVHPRP,-0.308
16,RRIRMRPPRLPRPRPRPGFRPRP,0.525
17,RRIRFRPPRLPRPRPRPEHWPRP,0.0716
18,RRIRDRPPRLPRPRPRPRIEPRP,0.119
19,RRIRIRPPRLPRPRPRPGMQPRP,-0.282
20,RRIRTRPPRLPRPRPRPLAWPRP,0.195
21,RRIRWRPPRLPRPRPRPNVPPRP,-0.144
22,RRIRHRPPRLPRPRPRPAMDPRP,-0.221

row,Sequence,shrunken log2 fold change
1,RRIRGRPPRLPRPRPRPEITPRP,0.542
2,RRIRPRPPRLPRPRPRPTFGPRP,0.191
3,RRIRCRPPRLPRPRPRPCYHPRP,-0.79
4,RRIRGRPPRLPRPRPRPLDQPRP,1.01
5,RRIRWRPPRLPRPRPRPRFYPRP,-0.00432
6,RRIRGRPPRLPRPRPRPLTLPRP,0.275
7,RRIRARPPRLPRPRPRPCCNPRP,0.278
8,RRIRQRPPRLPRPRPRPCRFPRP,0.00388
9,RRIRKRPPRLPRPRPRPFTSPRP,0.093
10,RRIRGRPPRLPRPRPRPTGVPRP,0.742
11,RRIRWRPPRLPRPRPRPDVAPRP,1.3
12,RRIRWRPPRLPRPRPRPWQCPRP,-0.233
13,RRIRPRPPRLPRPRPRPNVDPRP,-0.0229
14,RRIRFRPPRLPRPRPRPLRDPRP,0.717
15,RRIRARPPRLPRPRPRPKSPPRP,0.425
16,RRIRNRPPRLPRPRPRPNFVPRP,-0.317
17,RRIRIRPPRLPRPRPRPNSAPRP,-0.234
18,RRIRQRPPRLPRPRPRPAAFPRP,0.39
19,RRIRMRPPRLPRPRPRPAWIPRP,0.052
20,RRIRPRPPRLPRPRPRPGLDPRP,0.0198
21,RRIRHRPPRLPRPRPRPKQPPRP,-0.00478
22,RRIRRRPPRLPRPRPRPRAWPRP,-0.0407

row,Sequence,shrunken log2 fold change
1,RRIRTRPPRLPRPRPRPCAFPRP,-0.0344
2,RRIRSRPPRLPRPRPRPQNMPRP,-0.268
3,RRIRDRPPRLPRPRPRPKMIPRP,-0.185
4,RRIRPRPPRLPRPRPRPVCYPRP,-0.309
5,RRIRMRPPRLPRPRPRPPRRPRP,1.47
6,RRIRLRPPRLPRPRPRPWRKPRP,0.125
7,RRIRCRPPRLPRPRPRPRGCPRP,0.395
8,RRIRKRPPRLPRPRPRPLESPRP,0.515
9,RRIRNRPPRLPRPRPRPMAQPRP,0.0103
10,RRIRRRPPRLPRPRPRPQNAPRP,0.0513
11,RRIRPRPPRLPRPRPRPIICPRP,-0.188
12,RRIRGRPPRLPRPRPRPVCTPRP,0.73
13,RRIRFRPPRLPRPRPRPLMPPRP,-0.00679
14,RRIRRRPPRLPRPRPRPTLTPRP,0.466
15,RRIRWRPPRLPRPRPRPPTFPRP,-0.0697
16,RRIRKRPPRLPRPRPRPIPQPRP,-0.184
17,RRIRPRPPRLPRPRPRPIKFPRP,-0.908
18,RRIRTRPPRLPRPRPRPWCLPRP,-0.596
19,RRIRHRPPRLPRPRPRPCCKPRP,1.89
20,RRIRFRPPRLPRPRPRPSPEPRP,0.24
21,RRIRNRPPRLPRPRPRPNMWPRP,-0.274
22,RRIRHRPPRLPRPRPRPKTMPRP,-0.0912

row,Sequence,shrunken log2 fold change
1,RRIRWRPPRLPRPRPRPQCDPRP,0.462
2,RRIRYRPPRLPRPRPRPIRRPRP,-0.0923
3,RRIRKRPPRLPRPRPRPATNPRP,0.712
4,RRIRFRPPRLPRPRPRPPWEPRP,0.124
5,RRIRWRPPRLPRPRPRPVVCPRP,0.301
6,RRIRCRPPRLPRPRPRPNQWPRP,-0.117
7,RRIRMRPPRLPRPRPRPAIWPRP,1.36
8,RRIRGRPPRLPRPRPRPWQHPRP,-0.0318
9,RRIRERPPRLPRPRPRPYCKPRP,0.0936
10,RRIRTRPPRLPRPRPRPNAHPRP,-0.102
11,RRIRTRPPRLPRPRPRPRHDPRP,0.0144
12,RRIRKRPPRLPRPRPRPFTIPRP,0.0665
13,RRIRARPPRLPRPRPRPHRGPRP,0.14
14,RRIRPRPPRLPRPRPRPHGYPRP,-0.0483
15,RRIRWRPPRLPRPRPRPIANPRP,0.00334
16,RRIRCRPPRLPRPRPRPTHVPRP,0.437
17,RRIRVRPPRLPRPRPRPEKMPRP,-0.3
18,RRIRFRPPRLPRPRPRPTQYPRP,-0.261
19,RRIRLRPPRLPRPRPRPLIWPRP,0.0251
20,RRIRRRPPRLPRPRPRPAWHPRP,0.527
21,RRIRMRPPRLPRPRPRPSWPPRP,0.144
22,RRIRCRPPRLPRPRPRPDTKPRP,-0.158

row,Sequence,shrunken log2 fold change
1,RRIRLRPPRLPRPRPRPFRDPRP,0.00463
2,RRIRKRPPRLPRPRPRPYPRPRP,-0.00783
3,RRIRFRPPRLPRPRPRPNIYPRP,-0.116
4,RRIRYRPPRLPRPRPRPEQNPRP,0.00317
5,RRIRMRPPRLPRPRPRPLIHPRP,-0.207
6,RRIRVRPPRLPRPRPRPTFYPRP,-0.145
7,RRIRNRPPRLPRPRPRPADFPRP,0.0143
8,RRIRIRPPRLPRPRPRPWQNPRP,0.00641
9,RRIRQRPPRLPRPRPRPDDYPRP,0.0372
10,RRIRRRPPRLPRPRPRPLIDPRP,0.192
11,RRIRYRPPRLPRPRPRPSRTPRP,-0.342
12,RRIRRRPPRLPRPRPRPLLFPRP,0.278
13,RRIRYRPPRLPRPRPRPPEDPRP,-0.145
14,RRIRARPPRLPRPRPRPHKKPRP,-0.163
15,RRIRQRPPRLPRPRPRPHNHPRP,-0.811
16,RRIRRRPPRLPRPRPRPYQPPRP,-0.00931
17,RRIRCRPPRLPRPRPRPRSMPRP,-0.0145
18,RRIRLRPPRLPRPRPRPPRTPRP,0.591
19,RRIRRRPPRLPRPRPRPFTPPRP,-0.0158
20,RRIRLRPPRLPRPRPRPYMPPRP,-0.509
21,RRIRHRPPRLPRPRPRPYIAPRP,-0.496

# Reference: the supplement of paper PMC9112550, “Optimization of the antimicrobial peptide Bac7 by deep mutational scanning” (BMC Biology, 2022)
